In US20150344570A1 (published 2015):

biological target: T1, FcγRIa (human, UniProt P12314 16-292); assay: SPR (Biacore), relative binding; control HeCon Ab GpH7-A5/GpH7-B3/GpL16-k0
T1 construct: extracellular domain; also called FcgRI; FcgRIa; not shown: His tag attached to the C terminus
T1 sequence (P12314 16-292): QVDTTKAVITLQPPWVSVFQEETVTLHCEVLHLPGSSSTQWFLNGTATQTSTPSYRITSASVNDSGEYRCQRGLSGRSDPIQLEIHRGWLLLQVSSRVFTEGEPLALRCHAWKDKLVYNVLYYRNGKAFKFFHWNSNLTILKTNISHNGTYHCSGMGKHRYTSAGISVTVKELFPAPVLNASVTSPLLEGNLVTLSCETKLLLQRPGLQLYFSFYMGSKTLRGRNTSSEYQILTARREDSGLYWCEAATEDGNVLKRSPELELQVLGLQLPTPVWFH

He/Con_1a | Binder
105 % of control (=100) | GpH7-A5/GpH7-B3 variant K334_08L/GpL16-k0 (antibody, human IgG1, kappa, Alteration in one H chain only; also called He Ab K334_08L) heavy 1: not shown heavy 2: not shown light: DIVMTQSPLSLPVTPGEPASISCQASESLVHSNRNTYLHWYLQKPGQSPQLLIYKVSNRFSGVPDRFSGSGSGTDFTLKISRVEAEDVGVYYCSQNTHVPPTFGQGTKVEIERTVAAPSVFIFPPSDEQLKSGTASVVCLLNNFYPREAKVQWKVDNALQSGNSQESVTEQDSKDSTYSLSSTLTLSKADYEKHKVYACEVTHQGLSSPVTKSFNRGEC
106 % of control (=100) | GpH7-A5/GpH7-B3 variant S267_06M/GpL16-k0 (antibody, human IgG1, kappa, Alteration in one H chain only; also called He Ab S267_06M) heavy 1: not shown heavy 2: not shown light: DIVMTQSPLSLPVTPGEPASISCQASESLVHSNRNTYLHWYLQKPGQSPQLLIYKVSNRFSGVPDRFSGSGSGTDFTLKISRVEAEDVGVYYCSQNTHVPPTFGQGTKVEIERTVAAPSVFIFPPSDEQLKSGTASVVCLLNNFYPREAKVQWKVDNALQSGNSQESVTEQDSKDSTYSLSSTLTLSKADYEKHKVYACEVTHQGLSSPVTKSFNRGEC
105 % of control (=100) | GpH7-A5/GpH7-B3 variant K334_14T/GpL16-k0 (antibody, human IgG1, kappa, Alteration in one H chain only; also called He Ab K334_14T) heavy 1: not shown heavy 2: not shown light: DIVMTQSPLSLPVTPGEPASISCQASESLVHSNRNTYLHWYLQKPGQSPQLLIYKVSNRFSGVPDRFSGSGSGTDFTLKISRVEAEDVGVYYCSQNTHVPPTFGQGTKVEIERTVAAPSVFIFPPSDEQLKSGTASVVCLLNNFYPREAKVQWKVDNALQSGNSQESVTEQDSKDSTYSLSSTLTLSKADYEKHKVYACEVTHQGLSSPVTKSFNRGEC
103 % of control (=100) | GpH7-A5/GpH7-B3 variant P271_19Q/GpL16-k0 (antibody, human IgG1, kappa, Alteration in one H chain only; also called He Ab P271_19Q) heavy 1: not shown heavy 2: not shown light: DIVMTQSPLSLPVTPGEPASISCQASESLVHSNRNTYLHWYLQKPGQSPQLLIYKVSNRFSGVPDRFSGSGSGTDFTLKISRVEAEDVGVYYCSQNTHVPPTFGQGTKVEIERTVAAPSVFIFPPSDEQLKSGTASVVCLLNNFYPREAKVQWKVDNALQSGNSQESVTEQDSKDSTYSLSSTLTLSKADYEKHKVYACEVTHQGLSSPVTKSFNRGEC
106 % of control (=100) | GpH7-A5/GpH7-B3 variant S267_10E/GpL16-k0 (antibody, human IgG1, kappa, Alteration in one H chain only; also called He Ab S267_10E) heavy 1: not shown heavy 2: not shown light: DIVMTQSPLSLPVTPGEPASISCQASESLVHSNRNTYLHWYLQKPGQSPQLLIYKVSNRFSGVPDRFSGSGSGTDFTLKISRVEAEDVGVYYCSQNTHVPPTFGQGTKVEIERTVAAPSVFIFPPSDEQLKSGTASVVCLLNNFYPREAKVQWKVDNALQSGNSQESVTEQDSKDSTYSLSSTLTLSKADYEKHKVYACEVTHQGLSSPVTKSFNRGEC
104 % of control (=100) | GpH7-A5/GpH7-B3 variant K334_07I/GpL16-k0 (antibody, human IgG1, kappa, Alteration in one H chain only; also called He Ab K334_07I) heavy 1: not shown heavy 2: not shown light: DIVMTQSPLSLPVTPGEPASISCQASESLVHSNRNTYLHWYLQKPGQSPQLLIYKVSNRFSGVPDRFSGSGSGTDFTLKISRVEAEDVGVYYCSQNTHVPPTFGQGTKVEIERTVAAPSVFIFPPSDEQLKSGTASVVCLLNNFYPREAKVQWKVDNALQSGNSQESVTEQDSKDSTYSLSSTLTLSKADYEKHKVYACEVTHQGLSSPVTKSFNRGEC
100 % of control (=100) | GpH7-A5/GpH7-B3 variant Q295_12R/GpL16-k0 (antibody, human IgG1, kappa, Alteration in one H chain only; also called He Ab Q295_12R) heavy 1: not shown heavy 2: not shown light: DIVMTQSPLSLPVTPGEPASISCQASESLVHSNRNTYLHWYLQKPGQSPQLLIYKVSNRFSGVPDRFSGSGSGTDFTLKISRVEAEDVGVYYCSQNTHVPPTFGQGTKVEIERTVAAPSVFIFPPSDEQLKSGTASVVCLLNNFYPREAKVQWKVDNALQSGNSQESVTEQDSKDSTYSLSSTLTLSKADYEKHKVYACEVTHQGLSSPVTKSFNRGEC
105 % of control (=100) | GpH7-A5/GpH7-B3 variant P271_01G/GpL16-k0 (antibody, human IgG1, kappa, Alteration in one H chain only; also called He Ab P271_01G) heavy 1: not shown heavy 2: not shown light: DIVMTQSPLSLPVTPGEPASISCQASESLVHSNRNTYLHWYLQKPGQSPQLLIYKVSNRFSGVPDRFSGSGSGTDFTLKISRVEAEDVGVYYCSQNTHVPPTFGQGTKVEIERTVAAPSVFIFPPSDEQLKSGTASVVCLLNNFYPREAKVQWKVDNALQSGNSQESVTEQDSKDSTYSLSSTLTLSKADYEKHKVYACEVTHQGLSSPVTKSFNRGEC
102 % of control (=100) | GpH7-A5/GpH7-B3 variant L328_15Y/GpL16-k0 (antibody, human IgG1, kappa, Alteration in one H chain only; also called He Ab L328_15Y) heavy 1: not shown heavy 2: not shown light: DIVMTQSPLSLPVTPGEPASISCQASESLVHSNRNTYLHWYLQKPGQSPQLLIYKVSNRFSGVPDRFSGSGSGTDFTLKISRVEAEDVGVYYCSQNTHVPPTFGQGTKVEIERTVAAPSVFIFPPSDEQLKSGTASVVCLLNNFYPREAKVQWKVDNALQSGNSQESVTEQDSKDSTYSLSSTLTLSKADYEKHKVYACEVTHQGLSSPVTKSFNRGEC
105 % of control (=100) | GpH7-A5/GpH7-B3 variant K334_13S/GpL16-k0 (antibody, human IgG1, kappa, Alteration in one H chain only; also called He Ab K334_13S) heavy 1: not shown heavy 2: not shown light: DIVMTQSPLSLPVTPGEPASISCQASESLVHSNRNTYLHWYLQKPGQSPQLLIYKVSNRFSGVPDRFSGSGSGTDFTLKISRVEAEDVGVYYCSQNTHVPPTFGQGTKVEIERTVAAPSVFIFPPSDEQLKSGTASVVCLLNNFYPREAKVQWKVDNALQSGNSQESVTEQDSKDSTYSLSSTLTLSKADYEKHKVYACEVTHQGLSSPVTKSFNRGEC
103 % of control (=100) | GpH7-A5/GpH7-B3 variant P271_10E/GpL16-k0 (antibody, human IgG1, kappa, Alteration in one H chain only; also called He Ab P271_10E) heavy 1: not shown heavy 2: not shown light: DIVMTQSPLSLPVTPGEPASISCQASESLVHSNRNTYLHWYLQKPGQSPQLLIYKVSNRFSGVPDRFSGSGSGTDFTLKISRVEAEDVGVYYCSQNTHVPPTFGQGTKVEIERTVAAPSVFIFPPSDEQLKSGTASVVCLLNNFYPREAKVQWKVDNALQSGNSQESVTEQDSKDSTYSLSSTLTLSKADYEKHKVYACEVTHQGLSSPVTKSFNRGEC
